According to the supplement of paper PMC9170038:

Test system: MS2 coat protein
Assay: apparent KD of MS2 coat protein; designed switch direction (-1 OFF switch, 1 ON switch): 1; higher = weaker reporter binding
In short: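 RNA switches sharing common flanks were transcribed by stalled E. coli RNA polymerase on Illumina chips. A doubling series of SNAP-549-labelled MS2 coat protein, from 0.7 or 1.5 nM to 3 µM, was applied in Tris-HCl pH 7.5 buffer with KCl, MgCl2, BSA, DTT, tRNA and Tween-20. Each step lasted 0.8–1.5 h at the bottom of the series and 10–20 min at the top. Normalised cluster fluorescence was curve-fitted, giving apparent KD as the per-design median over clusters.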

[1] = Eterna round: R95, input ligand: FMN 200 uM
[2] = Eterna round: R95, input ligand: microRNA oligo, concentration not stated
[3] = Eterna round: R95, input ligand: none
[4] = input ligand: microRNA oligo, concentration not stated

Sequence	apparent KD of MS2 coat protein [1] [nM]	apparent KD of MS2 coat protein [2] [nM]	apparent KD of MS2 coat protein [3] [nM]	apparent KD of MS2 coat protein (input ligand: FMN 200 uM) [nM]	apparent KD of MS2 coat protein [4] [nM]	apparent KD of MS2 coat protein (input ligand: none) [nM]
AGCUAUCGAAAACGAUAGCAAAAGCAUGUACAUGAGGAUCACCCAUGUCGUGUACAAGCUUUUUGCUCGUCUUAAAA [Zipper 23 - 5] (puzzle: Sensor for hsa-mir-208a)	522	13.9	534			
AGCUAUCGCGUACGAUAGCUGAAGCGUGUACAUGAGGAUCACCCAUGUCAUGUACAAGCUUUUUGCUCGUCUUAUUG [JL-shm-2.28 JL mod] (puzzle: Sensor for hsa-mir-208a)	249	18.2	296			
AGCUAUGGAAAACUAUAGCAAAAGUAUGUACAUGAGGAUCACCCAUGUCAUGUACAAGCUUUUUGCUCGUCUUAAAA [ak 6 mod of one Eli's designs.] (puzzle: Sensor for hsa-mir-208a)	201	18.6	189			
AGCUAUUAAUCAGGAUAUAGUGACAUGAGGAUCACCCAUGUAUUGAUGAUUAAAUGUGGUCACUACUAGAAGGGAUUACUAACA [SameState NG2 #49] (Eterna round: R96, puzzle: Same State NG 2)				37	51.4	67.1
AGCUAUUAAUCAGGAUAUGGUGACAUGAGGAUCACCCAUGUAUUGAUGAUUAAAUGUGGUCACUACCAGAAGGGAUUACUAACA [SameState NG2 #50] (Eterna round: R96, puzzle: Same State NG 2)				34.2	221	260
AGCUUUUAAUUAGGAUAUGGUCACAUGAGGAUCACCCAUGUAACGAUGAUAUAAUGUGGUCAAGACUAGAAGGGAUUGCUAACA [SameState NG2 #68] (Eterna round: R96, puzzle: Same State NG 2)				589	357	355
AGGAAACAUGAGGAUCACCCAUGUAAAAAAGUGGGAGGAUAUACUAGAAGAAACAAAAUAGUAGAAGGCCUAAAAA [75%, Ex sub1, 32] (Eterna round: R96, puzzle: Same State 1)				19.1	37.7	42.3
AGGAAACAUGAGGAUCACCCAUGUAAAAAUAUGGGAGGAUAUGCGAAAAGAAACAAAGAAGCAGAAGGCCUAAGAA [75%, Ex5 sub 1, 7] (Eterna round: R96, puzzle: Same State 1)					85.7	
AGGAGACAUGAGGAUCACCCAUGUACUUCAUAAGGAGAGAACGAGGAUAUGUAGAGAGAGAGGGAACAGAAGGUGUGAGAGGAA [Default title] (Eterna round: R96, puzzle: Same State NG 3)				18.7	16.2	18.7
AGGCUCAGACGAGGAUAUAUGUGGUCACAUGAGGAUCACCCAUGUCUCGAGCUUCGGCUCGAGGCAUAGAAGGUGUCUGAGCCA [SSNG2/5-C1] (Eterna round: R96, puzzle: Same State NG 2)				115	42.5	25.7
AGGCUCAGAGCAGGAUAUAUGUGAUCACAUGAGGAUCACCCAUGUCUCGAGCUUCGGCUCGAGACAUAGAAGGGCUCUGAGCCA [SSNG2/3-B1] (Eterna round: R96, puzzle: Same State NG 2)				2490	39.3	28.3
AGGUGAUAUGGAAAGGAUAUACGGUUUAGGACAUGAGGAUCACCCAUGUGGAAGAUGGCGAGAGAGUAGAAGGUUCGAAAUUGGU [JR_SS@_Sub024] (puzzle: Same State 2)	43.4	75	77.4			
AGUAGUUUAACAUGAGGAUCACCCAUGUAUUUUUCUGUAACCUAGGAUAUGGGCGUUGUAUUUAUCCAGAAGGAGGAUCGUUUA [JR_SSNG3_Sub048] (Eterna round: R96, puzzle: Same State NG 3)				30.3	28.3	31.1
AGUAUACAUGAGGAUCACCCAUGUCUGUAACGGACAGGAUAUGCGUUGCAUCACUGUAAUGCAGAAGGGUCCUGUA [Same State 1 - Mod of JMF's solution 1 v.2] (Eterna round: R96, puzzle: Same State 1)				50.5	148	202
AGUAUACAUGAGGAUCACCCAUGUCUGUAACGGACAGGAUAUGCGUUGCAUCACUGUAAUGCAGAAGGGUCCUGUA [Same State 1 - Mod of JMF's solution 1 v.2] (puzzle: Same State 1)		179				
AGUAUUUAUGCAGGAUAUGAUUAACAUGAGGAUCACCCAUGUGGUGUUGUGAGUAAGGAGAGUGAUCAGAAGGGCAUUUUUUUU [JMF's solution 74] (Eterna round: R96, puzzle: Same State NG 2)				512	324	380

Sequence	apparent KD of MS2 coat protein [1] [nM]	apparent KD of MS2 coat protein [2] [nM]	apparent KD of MS2 coat protein [3] [nM]	apparent KD of MS2 coat protein (input ligand: FMN 200 uM) [nM]	apparent KD of MS2 coat protein [4] [nM]	apparent KD of MS2 coat protein (input ligand: none) [nM]
AGUCCAGCCAAAGCUGGACAAAAGCAUGUACAUGAGGAUCACCCAUGUUCAUGUACAAGCUUUUUGCUCGUCUUAAA [Mat - hsa-mir-208a - Mod of JL - 56] (puzzle: Sensor for hsa-mir-208a)	413	16.1	465			
AGUCCAGCCUGAGCUGGACAAAAGCAUGUACAUGAGGAUCACCCAUGUCAUGUACAAGCUUUUUGCUCGACUUAAAA [Mat - hsa-mir-208a - Mod of JL - D10] (puzzle: Sensor for hsa-mir-208a)	569	14.2	624			
AGUCCAGCCUGAGCUGGACAAAAGCAUGUACAUGAGGAUCACCCAUGUCAUGUACAAGCUUUUUGCUCGUAUUAAUA [Mat - hsa-mir-208a - Mod of JL - D30] (puzzle: Sensor for hsa-mir-208a)	491	12.7	528			
AGUCCAGCCUGAGCUGGACAAAAGCAUGUACAUGAGGAUCACCCAUGUCAUGUACAAGCUUUUUGCUCGUCUUAUAA [Mat - hsa-mir-208a - Mod of JL - D25] (puzzle: Sensor for hsa-mir-208a)	643	14.9	704			
AGUCCAGCCUGAGCUGGACAAAAGCAUGUACAUGAGGAUCACCCAUGUCAUGUACAAGCUUUUUGUUCGUCUUAAAA [Zipper 46 - 12] (puzzle: Sensor for hsa-mir-208a)	794	14.8	500			
AGUCCAGCCUGAGCUGGACAAAAGCAUGUACAUGAGGAUCACCCAUGUCAUGUACAGGCUUUUUGCUCGUCUUAAAA [Zipper 46 - 8] (puzzle: Sensor for hsa-mir-208a)	213	16.1	300			
AGUCCAGCCUGAGCUGGACAAAAGCAUGUACAUGAGGAUCACCCAUGUUCAUGUACAAGCUUUUUGCUCGUCUAAAU [Mat - hsa-mir-208a - Mod of JL - 46] (puzzle: Sensor for hsa-mir-208a)	449	15.5	682			
AGUCCAGCCUGAGCUGGACAGAAGCAUGUACAUGAGGAUCACCCAUGUCAUGUACAAGCUUUUUGCUCGUCUUAAAA [Zipper 46 - 3] (puzzle: Sensor for hsa-mir-208a)	422	15.9	586			
AGUCCAGCGAAAGCUGGACAAAAGCAUGUACAUGAGGAUCACCCAUGUUCAUGUACAAGCUUUUUGCUCGUCUUAAA [Mat - Sensor - JL mod - D95] (Eterna round: R96, puzzle: Sensor for hsa-mir-208a)				485	14.1	467
AGUCCAGCGAAAGCUGGACAAAAGCAUGUACAUGAGGAUCACCCAUGUUCAUGUACAAGCUUUUUGCUCGUCUUAAA [Zipper 52 - 13] (puzzle: Sensor for hsa-mir-208a)	486	16.2	588			
AGUCCAGCGAAAGCUGGACAAAAGCAUGUACAUGAGGAUCACCCAUGUUUAUGUACAAGCUUUUUGCUCGUUUUAAA [JL mod - D95 - 16] (puzzle: Sensor for hsa-mir-208a)	365	13.1	433			
AGUCCUGCCUGAGCAGGACAAAAGCAUGUACAUGAGGAUCACCCAUGUCAUGUACAAGCUUUUUGCUCGUCUUAAUA [Mat - hsa-mir-208a - Mod of JL - D41] (Eterna round: R96, puzzle: Sensor for hsa-mir-208a)				624	13.7	735
AGUCCUGCCUGAGCAGGACAAAAGCAUGUACAUGAGGAUCACCCAUGUCAUGUACAAGCUUUUUGCUCGUCUUAAUA [Mat - hsa-mir-208a - Mod of JL - D41] (puzzle: Sensor for hsa-mir-208a)	556	15.4	854			
AGUGAACAUGAGGAUCACCCAUGUGAGAGAAGUGUAGGAUAUGUGAGAGGCGGAGGAGGGACAGAAGGACAUGGAG [JR_SS!_Sub075] (puzzle: Same State 1)	38.7	42	48.5			
AGUGAACAUGAGGAUCACCCAUGUGAGAGAAGUGUAGGAUAUGUGAGGAGCAGAGGAGGAACAGAAGGACAUGGAG [JR_SS!_Sub073] (puzzle: Same State 1)	29	36.8	48.5			
